Measured values as given in patent US20230059690A1 (published 2023).

T1: cynomolgus monkey PSMA (cynomolgus monkey, UniProt A0A2K5VNZ0 44-750)
T1 chain: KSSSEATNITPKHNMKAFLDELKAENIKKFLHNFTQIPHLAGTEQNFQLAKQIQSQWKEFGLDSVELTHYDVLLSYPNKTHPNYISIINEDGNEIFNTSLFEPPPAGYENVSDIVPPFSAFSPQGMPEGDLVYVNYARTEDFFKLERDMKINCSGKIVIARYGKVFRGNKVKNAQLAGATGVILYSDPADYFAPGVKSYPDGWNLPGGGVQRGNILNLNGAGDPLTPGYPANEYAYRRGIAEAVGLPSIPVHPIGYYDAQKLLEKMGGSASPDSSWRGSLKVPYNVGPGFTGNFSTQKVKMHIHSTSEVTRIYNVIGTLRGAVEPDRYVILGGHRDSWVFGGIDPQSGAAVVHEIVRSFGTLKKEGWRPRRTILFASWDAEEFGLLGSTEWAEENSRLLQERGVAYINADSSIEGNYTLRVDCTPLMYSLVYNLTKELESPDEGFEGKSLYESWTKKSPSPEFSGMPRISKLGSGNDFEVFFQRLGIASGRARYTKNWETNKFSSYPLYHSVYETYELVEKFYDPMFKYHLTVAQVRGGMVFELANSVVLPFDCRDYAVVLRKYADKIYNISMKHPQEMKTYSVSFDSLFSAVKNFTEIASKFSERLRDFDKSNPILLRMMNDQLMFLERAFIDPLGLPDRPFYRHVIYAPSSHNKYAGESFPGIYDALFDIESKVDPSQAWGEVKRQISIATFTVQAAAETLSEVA


Assays:
[1] = biological target: T1, cynomolgus monkey PSMA; assay: SPR
[2] = biological target: T2, human PSMA (human, UniProt Q04609 44-750); assay: SPR
[3] = biological target: T1, cynomolgus monkey PSMA; assay: ELISA
[4] = biological target: T2, human PSMA; assay: ELISA
[5] = biological target: T1, cynomolgus monkey PSMA; assay: FACS; CHO-cyno PSMA cells
[6] = biological target: T2, human PSMA; assay: FACS; CHO-human PSMA cells
[7] = biological target: T2, human PSMA; assay: FACS; Rat1(e) hPSMA cells, lot RC6589
[8] = biological target: T2, human PSMA; assay: FACS; Rat1(e) hPSMA cells, lot RC6647

T2 sequence (Q04609 44-750): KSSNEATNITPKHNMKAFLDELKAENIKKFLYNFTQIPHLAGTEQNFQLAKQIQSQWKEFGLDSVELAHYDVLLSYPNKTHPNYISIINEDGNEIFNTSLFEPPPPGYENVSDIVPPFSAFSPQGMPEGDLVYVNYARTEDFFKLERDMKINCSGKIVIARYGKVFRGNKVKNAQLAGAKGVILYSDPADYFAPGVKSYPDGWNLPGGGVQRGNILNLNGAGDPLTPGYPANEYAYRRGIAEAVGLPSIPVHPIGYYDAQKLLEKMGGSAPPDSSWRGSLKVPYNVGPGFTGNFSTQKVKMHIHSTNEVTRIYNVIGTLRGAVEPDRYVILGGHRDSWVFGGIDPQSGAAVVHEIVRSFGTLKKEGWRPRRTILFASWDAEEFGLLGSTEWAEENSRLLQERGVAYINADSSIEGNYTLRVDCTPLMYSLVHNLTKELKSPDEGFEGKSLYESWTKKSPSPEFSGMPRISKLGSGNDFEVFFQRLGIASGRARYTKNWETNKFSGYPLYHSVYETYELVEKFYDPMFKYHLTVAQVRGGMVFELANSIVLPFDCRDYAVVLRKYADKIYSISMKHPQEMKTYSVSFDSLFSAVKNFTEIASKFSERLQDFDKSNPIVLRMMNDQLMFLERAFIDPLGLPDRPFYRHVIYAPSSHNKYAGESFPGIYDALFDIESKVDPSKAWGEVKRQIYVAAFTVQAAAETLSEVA

| Kd [1] [nM] | Kd [2] [nM] | Kd [3] [nM] | Kd [4] [nM] | Kd [5] [nM] | Kd [6] [nM] | Kd [7] [nM] | Kd [8] [nM] | Binder |
| --- | --- | --- | --- | --- | --- | --- | --- | --- |
| 36 | 11 | 0.063 | 0.074 | 0.166 | 0.094 | 0.205 |  | cHv75-2a7.G1(C99Y;L328C)k (antibody, V domains shown) VH: EVQLVESGGGLVQPGGSLRLSCAASGITFSNYWMSWVRQAPGKGLEWVANIKKDGSEKFYVDSVKGRFTISRDNAKNSLYLQINSLRAEDTAMYYCAREIQLYLQHWGQGTLVTVSS VL: DIQMTQSPSSVSASVGGRVTITCRASQGISNWLAWYQQKPGKAPKLLIYAASSLQSGVPSRFSGSGSGTDFTLTISNLQPEDFASYYCQQANSFPLTFGGGTKVEIKR |
| 47 | 59 | 0.104 | 0.138 | 0.431 | 0.709 |  | 0.761 | cHv75-2a11.G1(L328C)k (antibody, V domains shown) VH: QVQLVESGGGVVQPGRSLRLSCAASGFTFSSYDMHWVRQAPGKGLEWVAVIWYDGSNKYYADSLKGRFTISRDNSKNTLYLQMNSLRAEDTAVYYCARVIAARTFYYYGMDVWGQGTTVTVSS VL: not shown |
